Data as given in paper PMC3404088, “Development of a Small D-Enantiomeric Alzheimer’s Amyloid-β Binding Peptide Ligand for Future In Vivo Imaging Applications” (PLoS ONE, 2012).
Square brackets hold non-standard residues; d marks the D form. Primed or numbered codes have the meaning given here. Ends that are not written are not given here. FITC′ = fluorescein isothiocyanate (ϕ)

Tests used:
Settings in all cases: both partners purified
[1] = target: T1, Aβ1–42 fibrils (UniProt P05067 672-713); experiment: ELISA; Aβ1–42 fibrils coated on the plate (10 µg/ml, bicarbonate-carbonate buffer pH 9.6); D-compounds from 10 µg/ml, 2 h at 37°C; detected by anti-fluorescein isothiocyanate-AP, pNPP 2.5 h
T1 construct: amyloid-β peptide Aβ1–42, cut from the amyloid precursor protein (APP), in fibrillar form; Aggregated (fibrillar) state of the same peptide as m15; also called fibrillar Aß1–42; Aβ fibrils; source: bought: JPT Biotech or Bachem AG (HPLC purified peptide); fibrils formed at 37°C (7 days in PBS pH 7.4 for SPR; five days in 50 mM Tris-HCl pH 7.4 for ELISA)

[2] = target: T2, Aβ1–42 peptide film (mostly monomeric Aβ1–42) (UniProt P05067 672-713); experiment: ELISA; Aβ1–42 peptide film (mostly monomers) coated on the plate (10 µg/ml, bicarbonate-carbonate buffer pH 9.6); D-compounds from 10 µg/ml, 2 h at 37°C; detected by anti-fluorescein isothiocyanate-AP, pNPP 2.5 h
T2 construct: amyloid-β peptide Aβ1–42, cut from the amyloid precursor protein (APP), freshly dissolved peptide film containing mostly monomers and smaller oligomers; Same peptide as m14, not fibrillised; also called Aβ1–42 monomers; Aβ peptide film; source: bought: Bachem (lyophilized powder); HFIP film, reconstituted with 0.54% DMSO in PBS

[3] = target: T1, Aβ1–42 fibrils; experiment: SPR; Biacore 1000; Aβ1–42 fibrils (6800 RU) immobilised on a CM5 chip by amine coupling; PBS pH 7.4; analytes 50 µg/ml, 5 µl/min for 2 minutes, ambient temperature; semi-quantitative: response in % of ACI-80-Kϕ
[4] = target: T1, Aβ1–42 fibrils; experiment: SPR; Biacore T100, single-cycle mode, 25°C; Aβ1–42 fibrils immobilised on a CM5 chip by amine coupling; PBS pH 7.4, 30 µl/min; 100 to 62500 nM in fivefold steps, 60 s each; heterogeneous ligand model

T1 sequence (P05067 672-713): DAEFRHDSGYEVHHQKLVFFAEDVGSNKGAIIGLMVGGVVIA
T2 sequence (P05067 672-713): as above

Row | Binder | % binding relative to ACI-80-Kϕ [1] [%] | binding value (ELISA, 10 ug/mL compound) [1] | % binding relative to ACI-80-Kϕ [2] [%] | binding value (ELISA, 10 ug/mL compound) [2] | Dissociation [%] (response 60 s after end of injection, relative to ACI-80-Kϕ) [3] | Interaction [%] (maximal response during injection, relative to ACI-80-Kϕ) [3] | K D1 (heterogeneous ligand model, site 1) [4] | K D2 (heterogeneous ligand model, site 2) [4] | k off1 (heterogeneous ligand model, site 1) [4] | k off2 (heterogeneous ligand model, site 2) [4] | k on1 (heterogeneous ligand model, site 1) [4] | k on2 (heterogeneous ligand model, site 2) [4]
1 | [dS][dH][dY][dR][dH][dI][dS][dP][dA][dQ][dV][dK](FITC′) (D-enantiomeric derivative of ACI-80 (D1): N-terminal glutamine deleted (Q1X), added C-terminal lysine; also called D1-Q1X-Kϕ; source: synthetic peptide (JPT Peptide Technologies GmbH, Berlin)) [ACI-82-Kϕ] | 142 | 1.28 | 167 | 0.82 | 300 | 393 | – | – | – | – | – | –
2 | [dS][dF][dY][dR][dH][dI][dS][dP][dA][dQ][dV][dK](FITC′) (D-enantiomeric derivative of ACI-80 (D1): N-terminal glutamine deleted (Q1X), H3F, added C-terminal lysine; also called D1-Q1X-H3F-Kϕ; source: synthetic peptide (JPT Peptide Technologies GmbH, Berlin)) [ACI-85-Kϕ] | 111 | 1 | 129 | 0.63 | 40 | 229 | – | – | – | – | – | –
3 | [dS][dH][dY][dR][dH][dI][dS][dP][dA][dQ][dK][dK](FITC′) (D-enantiomeric derivative of ACI-80 (D1): N-terminal glutamine deleted (Q1X), V12K, added C-terminal lysine; also called D1-Q1X-V12K-Kϕ; source: synthetic peptide (JPT Peptide Technologies GmbH, Berlin)) [ACI-88-Kϕ] | 198 | 1.78 | 263 | 1.29 | 667 | 365 | 4.22e-07 | 5.95e-05 | 0.00722 | 0.0553 | 17100 | 930
4 | [dS][dH][dY][dR][dH][dI][dS][dP][dA][dQ][dK][dK](FITC′) (also: [19F]-4-fluorobenzoyl label, place not given here, D-enantiomeric derivative of ACI-80 (D1): N-terminal glutamine deleted (Q1X), V12K, added C-terminal lysine, fluorinated; also called D1-Q1X-V12K-K[^19F]ϕ; source: synthetic peptide, reacted with [^19F]-N-succinimidyl-4-fluorobenzoate (SFB), HPLC purified) [[^19F]-ACI-88-Kϕ] | 196 | 1.76 | 214 | 1.05 | 1230 | 294 | – | – | – | – | – | –
5 | [dP][dS][dH][dY][dR][dH][dI][dS][dP][dA][dQ][dK][dK](FITC′) (D-enantiomeric derivative of ACI-80 (D1): Q1P, V12K, added C-terminal lysine; also called D1-Q1P-V12K-Kϕ; source: synthetic peptide (JPT Peptide Technologies GmbH, Berlin)) [ACI-89-Kϕ] | 165 | 1.49 | 216 | 1.06 | 533 | 518 | 8e-06 | 3.53e-06 | 0.162 | 0.0118 | 20300 | 3340
6 | [dQ][dS][dH][dY][dR][dH][dI][dS][dP][dA][dQ][dK][dK](FITC′) (also: [19F]-4-fluorobenzoyl label, place not given here, D-enantiomeric derivative of ACI-80 (D1): V12K, added C-terminal lysine, fluorinated; The text says V12K was made to enable fluorination; also called D1-V12K-K[^19F]ϕ; source: synthetic peptide, reacted with [^19F]-N-succinimidyl-4-fluorobenzoate (SFB), HPLC purified) [[^19F]-ACI-87-Kϕ] | 140 | 1.26 | 176 | 0.86 | 67 | 153 | – | – | – | – | – | –
7 | [dP][dS][dH][dY][dR][dH][dI][dS][dP][dA][dQ][dV][dK](FITC′) (D-enantiomeric derivative of ACI-80 (D1): Q1P, added C-terminal lysine; also called D1-Q1P-Kϕ; source: synthetic peptide (JPT Peptide Technologies GmbH, Berlin)) [ACI-83-Kϕ] | 167 | 1.5 | 214 | 1.05 | 200 | 600 | – | – | – | – | – | –
8 | [dQ][dS][dH][dY][dR][dH][dI][dS][dP][dA][dQ][dK][dK](FITC′) (D-enantiomeric derivative of ACI-80 (D1): V12K, added C-terminal lysine; also called D1-V12K-Kϕ; source: synthetic peptide (JPT Peptide Technologies GmbH, Berlin)) [ACI-87-Kϕ] | 103 | 0.93 | 122 | 0.79 | 443 | 324 | 8.93e-06 | 2.59e-05 | 0.00184 | 0.0407 | 206 | 1570
9 | [dQ][dS][dH][dY][dR][dH][dI][dS][dP][dA][dQ][dV][dK](FITC′) (D-enantiomeric peptide ACI-80 (D1), selected by mirror image phage display on aggregated Aβ1–42, with an added C-terminal lysine; also called D1-Kϕ; source: synthetic peptide (JPT Peptide Technologies GmbH, Berlin)) [ACI-80-Kϕ] | 100 | 0.9 | 100 | 0.49 | – | – | 5.38e-05 | 0.000115 | 0.0252 | 1.58 | 469 | 13700
10 | [dP][dS][dF][dY][dR][dH][dI][dS][dP][dA][dQ][dV][dK](FITC′) (D-enantiomeric derivative of ACI-80 (D1): Q1P, H3F, added C-terminal lysine; also called D1-Q1P-H3F-Kϕ; source: synthetic peptide (JPT Peptide Technologies GmbH, Berlin)) [ACI-86-Kϕ] | 138 | 1.24 | 163 | 0.8 | 40 | 21 | – | – | – | – | – | –
11 | [dP][dS][dH][dY][dR][dH][dI][dS][dP][dA][dQ][dK][dK](FITC′) (also: [19F]-4-fluorobenzoyl label, place not given here, D-enantiomeric derivative of ACI-80 (D1): Q1P, V12K, added C-terminal lysine, fluorinated; also called D1-Q1P-V12K-K[^19F]ϕ; source: synthetic peptide, reacted with [^19F]-N-succinimidyl-4-fluorobenzoate (SFB), HPLC purified) [[^19F]-ACI-89-Kϕ] | 207 | 1.86 | 243 | 1.19 | 0 | 476 | – | – | – | – | – | –
